In patent US20240400708A1 one finds Kd data, which are given here for ten molecules.

To fix the notation:
B1: feline IgG1a Fc mutant S428L, S434F (antibody, part only; not given: Variable domains, not shown: another chain or arm of the molecule; small tags and cut ends)
constant: ASTTAPSVFPLAPSCGTTSGATVALACLVLGYFPEPVTVSWNSGALTSGVHTFPAVLQASGLYSLSSMVTVPSSRWLSDTFTCNVAHPPSNTKVDKTVRKTDHPPGPKPCDCPKCPPPEMLGGPSIFIFPPKPKDTLSISRTPEVTCLVVDLGPDDSDVQITWFVDNTQVYTAKTSPREEQFNSTYRVVSVLPILHQDWLKGKEFKCKVNSKSLPSPIERTISKAKGQPHEPQVYVLPPAQEELSRNKVSVTCLIKSFHPPDIAVEWEITGQPEPENNYRTTPPQLDSDGTYFVYSKLSVDRSHWQRGNTYTCSVLHEALHFHHTQKSLTQSPGK
B2: feline IgG1a Fc mutant S428M, S434W (antibody, part only; not given: Variable domains, not shown: another chain or arm of the molecule; small tags and cut ends)
constant: B1 constant with L316M, F322W
B3: feline IgG1a Fc mutant S428M, S434F (antibody, part only; not given: variable domains and light chain, not shown: another chain or arm of the molecule; small tags and cut ends)
constant: B1 constant with L316M
B4: feline IgG1a Fc mutant S428Y, S434W (antibody, part only; not given: variable domains and light chain, not shown: another chain or arm of the molecule; small tags and cut ends)
constant: B1 constant with L316Y, F322W
B5: feline IgG1a Fc mutant S428Y, S434F (antibody, part only; not given: Variable domains, not shown: another chain or arm of the molecule; small tags and cut ends)
constant: B1 constant with L316Y
B6: feline IgG1a Fc mutant S428M, S252Y (antibody, part only; not given: Variable domains, not shown: another chain or arm of the molecule; small tags and cut ends)
constant: B1 constant with S138Y, L316M, F322S
B7: feline IgG1a Fc mutant S428M, S434Y (antibody, part only; not given: Variable domains, not shown: another chain or arm of the molecule; small tags and cut ends)
constant: B1 constant with L316M, F322Y
B8: feline IgG1a Fc mutant Q311K, S428Y (antibody, part only; not given: Variable domains, not shown: another chain or arm of the molecule)
constant: B1 constant with Q197K, L316Y, F322S
B9: feline IgG1a Fc mutant S428L, S434W (antibody, part only; not given: Variable domains, not shown: another chain or arm of the molecule; small tags and cut ends)
constant: B1 constant with F322W
B10: feline IgG1a Fc mutant S428Y, S434Y (antibody, part only; not given: variable domains and light chain, not shown: another chain or arm of the molecule; small tags and cut ends)
constant: B1 constant with L316Y, F322Y

Where a chain is given by its changes, count along the chain named. Names and notes keep the numbering of the source.

For one experiment, the target named is Feline FcRn complex (FcRn-alpha subunit and beta-microglobulin) (feline). Put plainly: SPR (Biacore), feline FcRn captured on SA chip, IgG flowed over, pH 7.4.
Consider B1, for which the dissociation constant (Kd) was 46.4 nM.
For the molecule B2, the Kd came out at 25.3 nM.
Consider B3, for which the dissociation constant Kd worked out at 38.2 nM.
On the same count and under the same terms, the figure for B4 is 24.1 nM; for B5 it is 39.7 nM; for B6 it is 124 nM.
The same measure, in the same setting: the figure for B7 is 25.2 nM; for B8 it is 35.9 nM.
Same read-out and setting: the figure for B9 is 41.8 nM; for B10 it is 24.1 nM.

For a further experiment the target is unchanged. Nature of the experiment: SPR (Biacore), feline FcRn captured on SA chip, IgG flowed over, pH 6.
Take B1: the Kd came to 1.39 nM.
On to B2, for which the Kd stood at 0.937 nM.
The molecule B3 returned a Kd of 1.21 nM.
B4 displayed a Kd of 1.39 nM.
B5 showed an equilibrium dissociation constant (Kd) of 1.57 nM.
The same measure, in the same setting: the figure for B6 is 5.12 nM.
The same measure, in the same setting: the figure for B7 is 0.888 nM.
B8 showed a Kd of 3.31 nM.
The same measure, in the same setting: the figure for B9 is 1.02 nM; for B10 it is 1.12 nM.
